One experiment deals with T1, C9orf72 (full-length) (human, UniProt Q96LT7 1-481).
T1 construct: C9orf72, human, the longer isoform (481 AA); open reading frame commercially synthesized with codon optimization; also called Fl-C9orf72; C9orf72 Fl; source: Sf-9 insect cells, co-expressed with SMCR8 or SMCR8N-C, purified (Strep-Tactin, size-exclusion chromatography)
T1 sequence (looked up): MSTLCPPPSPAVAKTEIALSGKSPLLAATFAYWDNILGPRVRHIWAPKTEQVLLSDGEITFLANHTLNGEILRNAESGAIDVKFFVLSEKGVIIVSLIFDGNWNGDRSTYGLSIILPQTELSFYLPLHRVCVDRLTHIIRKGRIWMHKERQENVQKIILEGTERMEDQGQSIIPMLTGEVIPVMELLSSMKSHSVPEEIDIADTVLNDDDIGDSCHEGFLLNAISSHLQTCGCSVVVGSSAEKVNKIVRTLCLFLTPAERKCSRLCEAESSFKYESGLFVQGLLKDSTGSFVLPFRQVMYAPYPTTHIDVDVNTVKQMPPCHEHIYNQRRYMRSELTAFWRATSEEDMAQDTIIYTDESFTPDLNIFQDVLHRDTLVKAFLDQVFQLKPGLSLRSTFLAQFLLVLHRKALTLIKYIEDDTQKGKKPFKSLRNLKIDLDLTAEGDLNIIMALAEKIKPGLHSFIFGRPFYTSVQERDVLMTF
Put plainly: SEC; limited proteolysis: full-length C9orf72-SMCR8-WDR41 complex (0.93 mg) with trypsin (4.6 ug) 20 minutes on ice, then size-exclusion chromatography; bands of the peak fraction identified by tandem mass spectrometry. Particulars: both partners purified.

Experiment [1] deals with T2, full-length C9orf72-SMCR8 complex (GST-tagged) (human, UniProt Q96LT7 1-481; Q8TEV9 1-937).
T2 construct: C9orf72, human, the longer isoform (481 AA); codon-optimised synthetic open reading frame; SMCR8, human, from a human cDNA library; GST on C9orf72 is stated for the GST pull-down; also called GST-tagged C9orf72-SMCR8; source: Sf-9 insect cells, the two proteins co-expressed, purified (Strep-Tactin, size-exclusion chromatography); not shown: GST, N-terminal, kept
T2 sequence (looked up) 1: T1 sequence (looked up)
T2 sequence (looked up) 2: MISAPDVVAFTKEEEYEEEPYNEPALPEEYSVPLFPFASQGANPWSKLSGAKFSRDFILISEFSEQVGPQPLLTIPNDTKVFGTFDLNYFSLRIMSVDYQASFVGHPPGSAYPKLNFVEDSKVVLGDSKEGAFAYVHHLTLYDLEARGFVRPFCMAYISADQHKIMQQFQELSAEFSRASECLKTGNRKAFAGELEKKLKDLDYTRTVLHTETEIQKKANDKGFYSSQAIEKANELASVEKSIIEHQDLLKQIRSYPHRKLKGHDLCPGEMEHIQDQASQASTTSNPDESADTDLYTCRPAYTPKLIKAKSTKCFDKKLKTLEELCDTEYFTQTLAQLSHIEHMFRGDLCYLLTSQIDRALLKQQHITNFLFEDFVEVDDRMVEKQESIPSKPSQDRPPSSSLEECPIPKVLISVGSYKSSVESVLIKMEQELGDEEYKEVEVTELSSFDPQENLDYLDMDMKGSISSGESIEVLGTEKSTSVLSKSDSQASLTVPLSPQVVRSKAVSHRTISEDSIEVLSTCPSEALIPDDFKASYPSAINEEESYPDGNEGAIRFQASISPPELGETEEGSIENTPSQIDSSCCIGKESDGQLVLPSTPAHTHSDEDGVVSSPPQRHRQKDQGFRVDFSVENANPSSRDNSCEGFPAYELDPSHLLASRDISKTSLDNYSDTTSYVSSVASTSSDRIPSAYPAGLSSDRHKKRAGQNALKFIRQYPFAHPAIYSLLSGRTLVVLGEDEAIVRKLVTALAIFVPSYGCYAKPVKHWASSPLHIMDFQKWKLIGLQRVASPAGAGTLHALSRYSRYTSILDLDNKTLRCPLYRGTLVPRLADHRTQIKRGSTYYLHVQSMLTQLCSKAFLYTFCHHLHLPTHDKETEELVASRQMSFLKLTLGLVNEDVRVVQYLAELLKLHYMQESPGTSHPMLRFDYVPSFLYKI
Put plainly: SEC; reconstitution of the trimeric complex from purified C9orf72-SMCR8 and WDR41; Superose 6 10/300 GL, 20 mM HEPES pH 8.0, 150 mM NaCl, 2 mM DTT, 3% glycerol. As to conditions: both partners purified.

A further experiment addresses T3, SMCR8 (full-length) (human, UniProt Q8TEV9 1-937).
T3 construct: SMCR8, human, open reading frame amplified from a human cDNA library; residues 1-937; also called SMCR8 Fl; source: Sf-9 insect cells, co-expressed with C9orf72, purified (Strep-Tactin, size-exclusion chromatography)
T3 sequence (looked up): T2 sequence (looked up) 2
Put plainly: cross-linking; DSSO (0.5 to 10 mM, 1 hour at room temperature) on C9orf72-SMCR8 complex mixed with WDR41 in equimolar ratio (200 pmol) in 20 mM HEPES pH 8.0, 150 mM NaCl, 2 mM DTT, 3% glycerol; mass spectrometry after digestion. As to conditions: both partners purified.

The target of experiment [2] is T4, Strep-SMCR8ΔCC (SMCR8 mutant lacking its coiled-coil region) (human, UniProt Q8TEV9 1-937, missing residues 181 to 250).
T4 construct: SMCR8, human, lacking the coiled-coil region (missing residues 181 to 250); Cloned into pOPINE-3C-eGFP; source: HEK293T, transfected together with C9orf72, in lysate; not shown: twin-strep, N-terminal, kept
T4 sequence (looked up): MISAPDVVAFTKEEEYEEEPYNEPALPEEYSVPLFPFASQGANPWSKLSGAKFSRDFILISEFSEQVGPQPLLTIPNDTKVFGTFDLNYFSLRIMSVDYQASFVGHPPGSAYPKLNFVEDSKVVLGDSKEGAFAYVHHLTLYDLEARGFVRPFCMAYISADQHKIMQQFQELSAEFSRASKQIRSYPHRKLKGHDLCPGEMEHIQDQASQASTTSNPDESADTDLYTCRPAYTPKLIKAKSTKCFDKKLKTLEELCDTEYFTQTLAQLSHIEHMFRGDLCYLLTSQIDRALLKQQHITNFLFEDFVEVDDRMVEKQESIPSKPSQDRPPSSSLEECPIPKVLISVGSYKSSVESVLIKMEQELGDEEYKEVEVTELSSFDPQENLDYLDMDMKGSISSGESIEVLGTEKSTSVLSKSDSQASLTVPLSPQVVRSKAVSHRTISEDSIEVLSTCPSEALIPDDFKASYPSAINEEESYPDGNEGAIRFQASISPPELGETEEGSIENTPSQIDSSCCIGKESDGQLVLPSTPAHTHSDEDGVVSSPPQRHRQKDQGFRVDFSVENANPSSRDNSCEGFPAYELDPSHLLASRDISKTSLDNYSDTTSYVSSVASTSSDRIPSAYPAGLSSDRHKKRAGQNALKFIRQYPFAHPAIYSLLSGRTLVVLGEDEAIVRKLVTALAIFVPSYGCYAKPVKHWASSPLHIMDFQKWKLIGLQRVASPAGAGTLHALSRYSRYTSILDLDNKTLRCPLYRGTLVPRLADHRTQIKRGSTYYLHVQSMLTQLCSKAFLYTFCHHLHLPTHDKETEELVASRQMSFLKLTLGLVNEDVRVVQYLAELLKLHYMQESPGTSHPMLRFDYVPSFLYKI
Put plainly: affinity purification with mass spectrometry; Strep-SMCR8 (WT or ΔCC) and C9orf72 transfected into HEK293T; cells fed or starved 90 minutes (amino acid- and glucose-free media) before lysis; magnetic Strep-Tactin beads; label-free quantification (LFQ), triplicates. Particulars: partners not purified.

B1: carboxyl-terminal domain of SMCR8 (SMCR8C), tryptic fragment (domain or fragment, human, UniProt Q8TEV9 620-937, looked up)
chain: RQKDQGFRVDFSVENANPSSRDNSCEGFPAYELDPSHLLASRDISKTSLDNYSDTTSYVSSVASTSSDRIPSAYPAGLSSDRHKKRAGQNALKFIRQYPFAHPAIYSLLSGRTLVVLGEDEAIVRKLVTALAIFVPSYGCYAKPVKHWASSPLHIMDFQKWKLIGLQRVASPAGAGTLHALSRYSRYTSILDLDNKTLRCPLYRGTLVPRLADHRTQIKRGSTYYLHVQSMLTQLCSKAFLYTFCHHLHLPTHDKETEELVASRQMSFLKLTLGLVNEDVRVVQYLAELLKLHYMQESPGTSHPMLRFDYVPSFLYKI
notes: SMCR8, human, residues 620 to 937, product of limited proteolysis identified by mass spectrometry; source: Sf-9 insect cells; purified full-length C9orf72-SMCR8-WDR41 complex cut with trypsin
For the molecule B1, the binding result with C9orf72 (full-length) is “binds”.

B2: N-terminal domain of SMCR8 (SMCR8N), tryptic fragment (domain or fragment, human, UniProt Q8TEV9 1-439, looked up)
chain: MISAPDVVAFTKEEEYEEEPYNEPALPEEYSVPLFPFASQGANPWSKLSGAKFSRDFILISEFSEQVGPQPLLTIPNDTKVFGTFDLNYFSLRIMSVDYQASFVGHPPGSAYPKLNFVEDSKVVLGDSKEGAFAYVHHLTLYDLEARGFVRPFCMAYISADQHKIMQQFQELSAEFSRASECLKTGNRKAFAGELEKKLKDLDYTRTVLHTETEIQKKANDKGFYSSQAIEKANELASVEKSIIEHQDLLKQIRSYPHRKLKGHDLCPGEMEHIQDQASQASTTSNPDESADTDLYTCRPAYTPKLIKAKSTKCFDKKLKTLEELCDTEYFTQTLAQLSHIEHMFRGDLCYLLTSQIDRALLKQQHITNFLFEDFVEVDDRMVEKQESIPSKPSQDRPPSSSLEECPIPKVLISVGSYKSSVESVLIKMEQELGDEEYK
notes: SMCR8, human, residues 1 to 439, product of limited proteolysis identified by mass spectrometry; source: Sf-9 insect cells; purified full-length C9orf72-SMCR8-WDR41 complex cut with trypsin
For the molecule B2, the binding result with C9orf72 (full-length) is given as “binds”.

B3: WDR41 (full-length) (natural protein, human, UniProt Q9HAD4 1-459, looked up)
chain: MLRWLIGGGREPQGLAEKSPLQTIGEEQTQNPYTELLVLKAHHDIVRFLVQLDDYRFASAGDDGIVVVWNAQTGEKLLELNGHTQKITAIITFPSLESCEEKNQLILTASADRTVIVWDGDTTRQVQRISCFQSTVKCLTVLQRLDVWLSGGNDLCVWNRKLDLLCKTSHLSDTGISALVEIPKNCVVAAVGKELIIFRLVAPTEGSLEWDILEVKRLLDHQDNILSLINVNDLSFVTGSHVGELIIWDALDWTMQAYERNFWDPSPQLDTQQEIKLCQKSNDISIHHFTCDEENVFAAVGRGLYVYSLQMKRVIACQKTAHDSNVLHVARLPNRQLISCSEDGSVRIWELREKQQLAAEPVPTGFFNMWGFGRVSKQASQPVKKQQENATSCSLELIGDLIGHSSSVEMFLYFEDHGLVTCSADHLIILWKNGERESGLRSLRLFQKLEENGDLYLAV
notes: WDR41, human, open reading frame amplified from a human cDNA library; also called WDR41 Fl; source: Sf-9 insect cells, expressed individually, purified (Strep-Tactin, size-exclusion chromatography)
For the molecule B3, the binding result (in experiment [1]; with SMCR8 (full-length)) was “binds” in each case.

B4: WDR41 (in HEK293T cells) (natural protein, human (endogenous in HEK293T), UniProt Q9HAD4 1-459, looked up)
chain: B3 chain
notes: WDR41, found by mass spectrometry in Strep-Tactin purifications from HEK293T cells (only SMCR8 and C9orf72 plasmids were transfected); source: endogenous, HEK293T lysate
In the case of B4, in experiment [2], the “fold increase of WDR41 (LFQ) against SMCR8 WT fed, fed cells” value was approximately 4.5 fold and the “fold increase of WDR41 (LFQ) against SMCR8 WT fed, starved cells” value was approximately 5.5 fold.
